Source: PMC2173256 (The Journal of Cell Biology, 2002)

Tests used:
Assay in all cases: co-IP
[1] = biological target: FLAG XIAP V146A E314S (UniProt P98170 1-497, V146A | E314S)
[2] = biological target: FLAG XIAP D148A E314S (UniProt P98170 1-497, D148A | E314S)
[3] = biological target: FLAG XIAP (X-linked mammalian inhibitor of apoptosis protein), wild-type, full length (UniProt P98170 1-497)
[4] = biological target: FLAG XIAP D148A D214S H343A (UniProt P98170 1-497, D148A | D214S | H343A)
[5] = biological target: FLAG XIAP W310A E314S (UniProt P98170 1-497, W310A | E314S)
[6] = biological target: FLAG XIAP D214S N259D (UniProt P98170 1-497, D214S | N259D)
[7] = biological target: FLAG XIAP D148A G306S (UniProt P98170 1-497, D148A | G306S)
[8] = biological target: FLAG XIAP T143A E314S (UniProt P98170 1-497, T143A | E314S)
[9] = biological target: FLAG XIAP N259D (UniProt P98170 1-497, N259D)
[10] = biological target: FLAG XIAP H343A (UniProt P98170 1-497, H343A)
[11] = biological target: FLAG XIAP N259D E314S (UniProt P98170 1-497, N259D | E314S)
[12] = biological target: FLAG XIAP D148A W310A E314S (UniProt P98170 1-497, D148A | W310A | E314S)
[13] = biological target: FLAG XIAP D214S H343A (UniProt P98170 1-497, D214S | H343A)
[14] = biological target: FLAG XIAP E314S (UniProt P98170 1-497, E314S)
[15] = biological target: FLAG XIAP D214S (UniProt P98170 1-497, D214S)

Measured: DIABLO binding relative to wild-type XIAP (arbitrary value, 10 = 100%)

Chain of FLAG XIAP D148A E314S (P98170 whole entry D148A/E314S): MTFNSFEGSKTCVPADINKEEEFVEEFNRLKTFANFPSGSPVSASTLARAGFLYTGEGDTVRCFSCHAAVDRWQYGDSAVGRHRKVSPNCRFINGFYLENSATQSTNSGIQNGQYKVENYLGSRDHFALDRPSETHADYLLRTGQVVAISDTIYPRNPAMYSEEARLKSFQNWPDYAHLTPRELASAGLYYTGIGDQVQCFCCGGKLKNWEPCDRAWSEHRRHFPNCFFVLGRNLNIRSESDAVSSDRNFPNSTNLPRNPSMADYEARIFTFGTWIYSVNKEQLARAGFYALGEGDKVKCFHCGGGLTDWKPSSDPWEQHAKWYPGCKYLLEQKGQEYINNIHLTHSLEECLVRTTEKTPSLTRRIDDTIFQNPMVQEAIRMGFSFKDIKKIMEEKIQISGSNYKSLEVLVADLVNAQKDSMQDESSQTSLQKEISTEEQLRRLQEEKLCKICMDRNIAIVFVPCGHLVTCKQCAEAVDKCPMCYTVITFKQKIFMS
Chain of FLAG XIAP V146A E314S (P98170 whole entry V146A/E314S): as the sequence (P98170 whole entry D148A/E314S) above, with V146A, A148D counted along it
Chain of FLAG XIAP D148A G306S (P98170 whole entry D148A/G306S): as the sequence (P98170 whole entry D148A/E314S) above, with G306S, S314E counted along it
Chain of FLAG XIAP T143A E314S (P98170 whole entry T143A/E314S): as the sequence (P98170 whole entry D148A/E314S) above, with T143A, A148D counted along it
Chain of FLAG XIAP D148A D214S H343A (P98170 whole entry D148A/D214S/H343A): as the sequence (P98170 whole entry D148A/E314S) above, with D214S, S314E, H343A counted along it
Chain of FLAG XIAP N259D (P98170 whole entry N259D): as the sequence (P98170 whole entry D148A/E314S) above, with A148D, N259D, S314E counted along it
Chain of FLAG XIAP D214S (P98170 whole entry D214S): as the sequence (P98170 whole entry D148A/E314S) above, with A148D, D214S, S314E counted along it
Chain of FLAG XIAP (X-linked mammalian inhibitor of apoptosis protein), wild-type, full length (P98170 whole entry): as the sequence (P98170 whole entry D148A/E314S) above, with A148D, S314E counted along it
Chain of FLAG XIAP D148A W310A E314S (P98170 whole entry D148A/W310A/E314S): as the sequence (P98170 whole entry D148A/E314S) above, with W310A counted along it
Chain of FLAG XIAP E314S (P98170 whole entry E314S): as the sequence (P98170 whole entry D148A/E314S) above, with A148D counted along it
Chain of FLAG XIAP D214S H343A (P98170 whole entry D214S/H343A): as the sequence (P98170 whole entry D148A/E314S) above, with A148D, D214S, S314E, H343A counted along it
Chain of FLAG XIAP W310A E314S (P98170 whole entry W310A/E314S): as the sequence (P98170 whole entry D148A/E314S) above, with A148D, W310A counted along it
Chain of FLAG XIAP D214S N259D (P98170 whole entry D214S/N259D): as the sequence (P98170 whole entry D148A/E314S) above, with A148D, D214S, N259D, S314E counted along it
Chain of FLAG XIAP N259D E314S (P98170 whole entry N259D/E314S): as the sequence (P98170 whole entry D148A/E314S) above, with A148D, N259D counted along it
Chain of FLAG XIAP H343A (P98170 whole entry H343A): as the sequence (P98170 whole entry D148A/E314S) above, with A148D, S314E, H343A counted along it

B1: processed DIABLO (HA-tagged DIABLO) (natural protein)
chain: AVPIAQKSEPQSLSNEALMRRAVSLVTDSTSTFLSQTTYALIEAITEYTKAVYTLVSLYRQYTSLLGKMNSQEEDEVWQVIIGARVEMTSKQQEYLKLETTWMTAVGLSEMAAEAAYQTGADQASITARNHIQLVKSQVQEVRQLSQKAETKLAEAQTKELHQKAQEVSDEGADQEEEAYLRED
9 arbitrary (10 = 100%): [4] | [6] | [15]
4 arbitrary (10 = 100%): [5] | [12]
10 arbitrary (10 = 100%): [3] | [9] | [10]
8 arbitrary (10 = 100%): [7] | [13]
5 arbitrary (10 = 100%): all other assays above
